Publication PMC10210826

Target: N-terminal biotinylated tetradecapeptide of the C-terminal portion of the SARS-CoV-2 E protein (SARS-CoV-2)
Assay: SPR

Q: With “PDZ2 domain of human ZO1 (ZO1-PDZ2 domain) (domain or fragment)” as the substance, how does the Kd read?
A: 2.1 µM
